B1: Cytohesin-4 (Homo sapiens), Q9UIA0 (parent)
chain: MDLCHPEPAELSSGETEELQRIKWHRKQLLEDIQKLKDEIADVFAQIDCFESAEESRMAQKEKELCIGRKKFNMDPAKGIQYFIEHKLLTPDVQDIARFLYKGEGLNKTAIGTYLGERDPINLQVLQAFVDCHEFANLNLVQALRQFLWSFRLPGEAQKIDRMMEAFATRYCLCNPGVFQSTDTCYVLSFSIIMLNTSLHNPNVRDRPPFERFVSMNRGINNGSDLPEDQLRNLFDSIKSEPFSIPEDDGNDLTHTFFNPDREGWLLKLGGRVKTWKRRWFILTDNCLYYFEFTTDKEPRGIIPLENLSVQKVDDPKKPFCLELYNPSCRGQKIKACKTDGDGRVVEGKHESYRISATSAEERDQWIESIRASITRVPFYDLVSTRKKKIASKQ
partner: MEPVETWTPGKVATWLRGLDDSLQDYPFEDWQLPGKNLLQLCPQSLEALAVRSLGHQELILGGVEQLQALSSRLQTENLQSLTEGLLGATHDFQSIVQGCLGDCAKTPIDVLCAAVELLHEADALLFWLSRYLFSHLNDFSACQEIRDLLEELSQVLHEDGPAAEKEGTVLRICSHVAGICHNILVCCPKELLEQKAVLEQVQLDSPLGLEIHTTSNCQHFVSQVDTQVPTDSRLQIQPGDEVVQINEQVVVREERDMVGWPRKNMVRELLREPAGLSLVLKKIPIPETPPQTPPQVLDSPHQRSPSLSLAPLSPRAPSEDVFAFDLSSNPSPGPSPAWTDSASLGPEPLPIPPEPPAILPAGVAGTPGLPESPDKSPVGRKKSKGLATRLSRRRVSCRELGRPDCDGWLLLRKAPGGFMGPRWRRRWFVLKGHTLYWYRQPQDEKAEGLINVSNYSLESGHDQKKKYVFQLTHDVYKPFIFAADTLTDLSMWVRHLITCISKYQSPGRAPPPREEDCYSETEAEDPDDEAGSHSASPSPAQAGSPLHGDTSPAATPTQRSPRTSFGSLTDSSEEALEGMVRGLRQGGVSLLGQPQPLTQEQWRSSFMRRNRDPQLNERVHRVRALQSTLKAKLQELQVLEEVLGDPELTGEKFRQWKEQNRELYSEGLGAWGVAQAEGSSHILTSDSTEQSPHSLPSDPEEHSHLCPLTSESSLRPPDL
B2: Vesicle transport through interaction with t-SNAREs homolog 1B (Homo sapiens), Q9UEU0 (parent)
chain: MASSAASSEHFEKLHEIFRGLHEDLQGVPERLLGTAGTEEKKKLIRDFDEKQQEANETLAEMEEELRYAPLSFRNPMMSKLRNYRKDLAKLHREVRSTPLTATPGGRGDMKYGIYAVENEHMNRLQSQRAMLLQGTESLNRATQSIERSHRIATETDQIGSEIIEELGEQRDQLERTKSRLVNTSENLSKSRKILRSMSRKVTTNKLLLSIIILLELAILGGLVYYKFFRSH
partner: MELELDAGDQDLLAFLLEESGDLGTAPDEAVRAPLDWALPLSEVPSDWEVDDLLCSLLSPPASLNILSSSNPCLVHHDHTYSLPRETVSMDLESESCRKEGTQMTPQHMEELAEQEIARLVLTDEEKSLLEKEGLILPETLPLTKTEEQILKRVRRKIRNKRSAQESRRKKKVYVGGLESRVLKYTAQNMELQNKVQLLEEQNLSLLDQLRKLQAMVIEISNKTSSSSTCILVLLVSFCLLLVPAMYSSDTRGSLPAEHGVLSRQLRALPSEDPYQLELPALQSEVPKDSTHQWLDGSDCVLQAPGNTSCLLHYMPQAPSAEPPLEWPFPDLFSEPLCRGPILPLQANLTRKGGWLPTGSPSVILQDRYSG
B3: Ceramide transfer protein (Homo sapiens), Q9Y5P4 (parent)
chain: MSDNQSWNSSGSEEDPETESGPPVERCGVLSKWTNYIHGWQDRWVVLKNNALSYYKSEDETEYGCRGSICLSKAVITPHDFDECRFDISVNDSVWYLRAQDPDHRQQWIDAIEQHKTESGYGSESSLRRHGSMVSLVSGASGYSATSTSSFKKGHSLREKLAEMETFRDILCRQVDTLQKYFDACADAVSKDELQRDKVVEDDEDDFPTTRSDGDFLHSTNGNKEKLFPHVTPKGINGIDFKGEAITFKATTAGILATLSHCIELMVKREDSWQKRLDKETEKKRRTEEAYKNAMTELKKKSHFGGPDYEEGPNSLINEEEFFDAVEAALDRQDKIEEQSQSEKVRLHWPTSLPSGDAFSSVGTHRFVQKPYSRSSSMSSIDLVSASDDVHRFSSQVEEMVQNHMTYSLQDVGGDANWQLVVEEGEMKVYRREVEENGIVLDPLKATHAVKGVTGHEVCNYFWNVDVRNDWETTIENFHVVETLADNAIIIYQTHKRVWPASQRDVLYLSVIRKIPALTENDPETWIVCNFSVDHDSAPLNNRCVRAKINVAMICQTLVSPPEGNQEISRDNILCKITYVANVNPGGWAPASVLRAVAKREYPKFLKRFTSYVQEKTAGKPILF

Variants of: B1
Details: with cnkr1_human CNKSR1, Q969H4

effect of a mutation on the interaction | Variant
with no effect | A9T
with no effect | M74V

Variants of: B2
Details: with creb3_human CREB3, O43889

effect of a mutation on the interaction | Variant
with no effect | R124Q
with no effect | R176H

Variants of: B3
Details: with rtn4_human RTN4, Q9NQC3
Sequence of rtn4_human RTN4, Q9NQC3 (Q9NQC3 whole entry): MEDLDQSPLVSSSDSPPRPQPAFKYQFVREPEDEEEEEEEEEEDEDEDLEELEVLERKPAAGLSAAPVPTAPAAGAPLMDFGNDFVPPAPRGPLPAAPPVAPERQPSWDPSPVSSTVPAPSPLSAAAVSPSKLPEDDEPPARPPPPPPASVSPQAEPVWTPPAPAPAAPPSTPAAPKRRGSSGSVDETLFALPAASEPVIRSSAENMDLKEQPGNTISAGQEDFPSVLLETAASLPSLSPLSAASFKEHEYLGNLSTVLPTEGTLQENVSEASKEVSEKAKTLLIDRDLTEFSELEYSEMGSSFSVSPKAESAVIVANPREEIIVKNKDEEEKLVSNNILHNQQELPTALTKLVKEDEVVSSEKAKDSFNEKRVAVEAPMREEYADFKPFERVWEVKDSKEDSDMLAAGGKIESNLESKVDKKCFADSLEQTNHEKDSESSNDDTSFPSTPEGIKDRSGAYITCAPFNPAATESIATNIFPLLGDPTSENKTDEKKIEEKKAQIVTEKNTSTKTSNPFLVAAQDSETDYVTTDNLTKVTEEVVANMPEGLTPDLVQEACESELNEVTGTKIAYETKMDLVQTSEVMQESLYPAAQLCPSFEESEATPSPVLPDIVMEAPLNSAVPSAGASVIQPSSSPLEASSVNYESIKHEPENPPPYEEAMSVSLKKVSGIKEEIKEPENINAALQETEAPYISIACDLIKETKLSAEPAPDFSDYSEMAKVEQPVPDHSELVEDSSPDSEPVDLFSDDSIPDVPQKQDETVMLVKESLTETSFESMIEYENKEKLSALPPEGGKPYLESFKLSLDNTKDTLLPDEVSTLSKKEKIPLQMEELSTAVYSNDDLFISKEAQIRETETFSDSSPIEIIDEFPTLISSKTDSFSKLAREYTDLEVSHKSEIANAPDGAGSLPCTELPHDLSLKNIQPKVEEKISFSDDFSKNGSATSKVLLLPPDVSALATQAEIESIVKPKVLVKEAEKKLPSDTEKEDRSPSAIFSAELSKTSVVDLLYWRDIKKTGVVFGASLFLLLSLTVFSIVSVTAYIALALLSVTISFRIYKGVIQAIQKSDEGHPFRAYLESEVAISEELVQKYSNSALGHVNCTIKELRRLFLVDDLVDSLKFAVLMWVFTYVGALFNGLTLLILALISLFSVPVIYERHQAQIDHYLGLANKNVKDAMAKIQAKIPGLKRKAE

effect of a mutation on the interaction | Variant
with no effect | R128H

Variants of: B3
Details: with rtn3_human RTN3, O95197
Sequence of rtn3_human RTN3, O95197 (O95197 whole entry): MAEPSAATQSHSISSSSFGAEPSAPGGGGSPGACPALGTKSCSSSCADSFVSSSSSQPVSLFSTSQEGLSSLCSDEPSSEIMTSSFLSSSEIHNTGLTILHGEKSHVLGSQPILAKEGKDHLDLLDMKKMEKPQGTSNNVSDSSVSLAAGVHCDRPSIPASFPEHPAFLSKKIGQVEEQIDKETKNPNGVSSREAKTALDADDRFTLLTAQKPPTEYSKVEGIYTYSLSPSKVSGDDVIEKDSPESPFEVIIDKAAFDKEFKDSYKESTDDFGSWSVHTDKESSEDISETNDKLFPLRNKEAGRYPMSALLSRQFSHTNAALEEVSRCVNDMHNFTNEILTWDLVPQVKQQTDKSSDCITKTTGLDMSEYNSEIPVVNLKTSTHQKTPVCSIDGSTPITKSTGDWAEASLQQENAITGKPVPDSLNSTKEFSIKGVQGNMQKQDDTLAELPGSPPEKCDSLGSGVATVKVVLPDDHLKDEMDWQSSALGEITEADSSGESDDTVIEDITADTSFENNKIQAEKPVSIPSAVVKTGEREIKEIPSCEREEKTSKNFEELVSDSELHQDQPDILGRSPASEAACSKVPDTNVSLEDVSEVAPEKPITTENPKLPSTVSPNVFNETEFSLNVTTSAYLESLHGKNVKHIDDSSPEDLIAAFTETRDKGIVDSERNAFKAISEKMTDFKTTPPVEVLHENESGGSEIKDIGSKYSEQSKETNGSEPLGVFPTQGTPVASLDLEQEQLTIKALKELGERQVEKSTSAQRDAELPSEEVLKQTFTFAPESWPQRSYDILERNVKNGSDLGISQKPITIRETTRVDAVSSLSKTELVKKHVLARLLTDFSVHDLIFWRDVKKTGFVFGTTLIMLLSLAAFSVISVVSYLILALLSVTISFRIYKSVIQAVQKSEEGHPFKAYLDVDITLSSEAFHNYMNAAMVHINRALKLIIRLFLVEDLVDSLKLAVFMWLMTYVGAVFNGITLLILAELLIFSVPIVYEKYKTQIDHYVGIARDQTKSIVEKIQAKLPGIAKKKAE

effect of a mutation on the interaction | Variant
with no effect | R128H

Variants of: B3
Details: with ar6p1_human ARL6IP1, Q15041
Sequence of ar6p1_human ARL6IP1, Q15041 (Q15041 whole entry): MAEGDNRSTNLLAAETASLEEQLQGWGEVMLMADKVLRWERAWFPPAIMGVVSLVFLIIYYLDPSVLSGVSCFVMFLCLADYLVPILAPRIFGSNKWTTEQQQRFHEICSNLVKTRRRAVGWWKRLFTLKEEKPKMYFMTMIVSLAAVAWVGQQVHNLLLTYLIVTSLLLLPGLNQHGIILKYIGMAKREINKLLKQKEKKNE

effect of a mutation on the interaction | Variant
with no effect | R128H

— IntAct's records for PubMed 31515488
